For the series the following is noted: Thermococcus kodakarensis (strain ATCC BAA-918 / JCM 12380 / KOD1); pH 9; 50 °C; GdnHCl; CD; Tris-HCl 20 mM; reversible: Yes; whole UniProt chain shown.

Here are results for one protein from FireProtDB (doi:10.1016/j.jmb.2008.02.039).

B1: Ribonuclease HII wild type, O74035 (protein)
chain: MKIAGIDEAGRGPVIGPMVIAAVVVDENSLPKLEELKVRDSKKLTPKRREKLFNEILGVLDDYVILELPPDVIGSREGTLNEFEVENFAKALNSLKVKPDVIYADAADVDEERFARELGERLNFEAEVVAKHKADDIFPVVSAASILAKVTRDRAVEKLKEEYGEIGSGYPSDPRTRAFLENYYREHGEFPPIVRKGWKTLKKIAEKVESEKKAEERQATLDRYFRKV
With B1, the denaturant m value was determined as 5.64 kcal/mol/M, the “denaturant midpoint (higher = more stable)” value worked out at 1.85 M and the unfolding free energy turned out to be 10.4 kcal/mol.
